Assay results from patent publication US8440804B2, “Polypeptides having modulatory effects on cells” (Ecole Normale Superieure de Lyon, priority 2006, dated 2013).

Experiments:
[1] = biological target: T1, CNA beta C-terminal fragment (Homo sapiens, UniProt P16298); assay: Yeast two-hybrid assays of R5G42 mutants; format: binding; conditions: plasmids pSH18-34, pJK103, pRB18-40
T1 construct: expressed in transfected cells; host or cells: yeast (MB210a transformed with library plasmid, mated with bait strain)
Protocol: (§1) The capacity of R5G42 mutants having a one amino acid change as compared to R5G42 to bind CNA beta and gamma C-Terminal fragments (FIG. 3b) and NS5A-TP2 was tested in yeast two-hybrid assays. CNA beta and gamma C-Terminal fragments and NS5A-TP2 were cloned in three different vectors (pSH18-34, pJK103 and pRB18-40). These three plasmids differ from each other in the level of sensitivity of their promoter, pSH18-34 having the highest sensitivity and pRB18-40 having the lowest.
(§2) The inventors explored the ability of R5G42 mutants having a one amino acid change as compared to R5G42, to bind to CNA beta and gamma C-Terminal fragments (FIG. 3b) and to NS5A-TP2. To this end, they proceeded to yeast-two hybrid assays as in example 3. CNA beta and gamma C-Terminal fragments (FIG. 3b) and NS5A-TP2 were cloned in three different plasmids (pSH18-34, pJK103 and pRB18-40), which differed from each other in the level of sensitivity of their promoter to the bait/prey complex formation, pSH18-34 having the highest sensitivity and pRB18-40 having the lowest.

[2] = biological target: T2, NS5A-TP2 (Homo sapiens, UniProt Q7Z4H3); assay: Yeast two-hybrid assays of R5G42 mutants; format: binding; conditions: plasmids pSH18-34, pJK103, pRB18-40
T2 construct: expressed in transfected cells; host or cells: yeast
T2 sequence (Q7Z4H3 1-204): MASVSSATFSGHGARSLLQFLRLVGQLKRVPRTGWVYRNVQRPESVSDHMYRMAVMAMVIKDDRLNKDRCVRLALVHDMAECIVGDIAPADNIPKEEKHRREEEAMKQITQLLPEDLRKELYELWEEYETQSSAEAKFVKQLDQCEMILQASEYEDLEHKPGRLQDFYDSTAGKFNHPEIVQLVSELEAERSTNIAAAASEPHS
Protocol: as §1, §2

[3] = test system: CNA gamma C-terminal fragment; assay: Yeast two-hybrid assays of R5G42 mutants; format: binding, human; conditions: plasmids pSH18-34, pJK103, pRB18-40
Protocol: as §1, §2

[4] = biological target: T2, NS5A-TP2; assay: Further yeast two-hybrid binding assays (higher sensitivity)
From the text: FIG. 14. Specificity of aptamers according to the invention for CNA and NS5A-TP2 Interaction matrix between peptide aptamers R5G42, C2, C7, C8, N9, R5G44 and R5G52 with CNA constructs CNA1-CNA8 (A) CNA9-11 (B) and NS5A-TP2 (C). An interaction phenotype between CNA3/CNA 11, which both contain the Calmodulin binding domain (CaM) and the auto-inhibitory domain (Al) but not the CNB binding domain (CNB) and the aptamers R5G42, C2, C7, C8 and N9 is observed in a two-hybrid assay. R5G44 and R5G52 aptamers recognize neither the CNA fragments, nor NS5A-TP2. Only aptamers R5G42 and N9 recognize NS5A-TP2.
The inventors proceeded to further yeast two-hybrid binding assays between peptide aptamers R5G42 (SEQ ID 22), C2 (SEQ ID 23), C7 (SEQ ID 27), C8 (SEQ ID 28), N9 (SEQ ID 33), R5G44 and R5G52 with CNA constructs CNA1-CNA8 (FIG. 14A), CNA9-CNA11 (FIG. 14B) and NS5A-TP2 (SEQ ID 15) (FIG. 14C). The sensitivity of this yeast two-hybrid assay was higher than in the experiment reported above.

[5] = test system: Raw1 cells (osteoclasts precursors); assay: Raw cell differentiation assay (osteoclast differentiation); format: cell-based; conditions: 4 days post-transfection, absence of RANKL
From the text: Trx, CNA* and Peptide aptamers R5G42, C2, C7, C8 and N9 were transfected into RAW1 cells and left for four days in absence of the normal differentiation factor RANKL. CNA* is activated calcineurin A which elicits a robust differentiation response.
The inventors assessed the ability of some CNA-specific peptide aptamers to promote osteoclast differentiation via the activation of CNA. […] The differentiation state was then observed 4 days post-transfection.
Raw1 cells were transfected with the following plasmids: pCI-HA-Trx (negative control), pCI-HA CNA* (positive control for differentiation activation), pCI-HA R5G42, pCI-HA R5G42-C2, pCI-HA R5G42-C7, pCI-HA R5G42-C8 and pCI-HA R5G42-N9. The sequence of CNA* is the same as that of CNA8 (see FIG. 17, SEQ ID 42). The sequences of the R5G42 (SEQ ID 22), C2 (SEQ ID 23), C7 (SEQ ID 27), C8 (SEQ ID 28) and N9 (SEQ ID 33) aptamers is shown on FIG. 8.
One day before the transfection, Raw I cells were plated in 6-well dishes at 50 cell/mm^2. Transfection was performed with FuGene 6 Reagent (Roche) using 2 μg of each plasmid and following supplier recommendations.
8 h after transfection D-MEM was changed with α-MEM. In the control dishes α-MEM+50 ng/ml RANKL was added. After 2 days, medium was changed with a fresh medium. The differentiation state was then observed 4 days post-transfection.

CNA gamma C-terminal fragment, sequence (P48454 386-512 limits assumed): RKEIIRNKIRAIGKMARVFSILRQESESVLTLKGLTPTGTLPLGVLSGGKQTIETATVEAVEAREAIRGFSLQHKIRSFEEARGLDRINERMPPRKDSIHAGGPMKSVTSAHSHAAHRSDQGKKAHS

B1: N9: R5G42 mutant having a one amino acid change (SEQ ID 33) (protein)
chain: MVKQIESKTAFQEALDAAGDKLVVVDFSAAWCGPSAVTFAVCALGPCKMIKPFFHSLSEKYSNVIFLEVDVDDCQDVASECEVKCMPTFQFFKKGQKVGEFSGANKEKLEATINELV
modifications: Aptamer R5G42 mutant N9
In the case of B1, the yeast two-hybrid interaction [1] is reported as “not with the CNA beta and gamma C-terminal fragments”, the yeast two-hybrid interaction [2] is reported as “shown to interact with NS5A-TP2” and the yeast two-hybrid interaction [3] is reported as “not with the CNA beta and gamma C-terminal fragments”. The “recognition of NS5A-TP2” value [4] was “recognized NS5A-TP2” and the osteoclast differentiation [5] was “no osteoclasts fully differentiated were detectable”.
